The record followed here is patent publication US20220204599A1 (published 2022).

Like-named read-outs stand apart in the source and are kept apart here.

One may read the Kd as the constant that tells how readily two partners part at equilibrium.

To fix the notation:
B3: CTHRC1-His (other)
chain: GAVGASEIPKGKQKAQLRQREVVDLYNGMCLQGPAGVPGRDGSPGANGIPGTPGIPGRDGFKGEKGECLRESFEESWTPNYKQCSWSSLNYGIDLGKIAECTFTKMRSNSALRVLFSGSLRLKCRNACCQRWYFTFNGAECSGPLPIEAIIYLDQGSPEMNSTINIHRTSSVEGLCEGIGAGLVDVAIWVGTCSDYPKGDASTGWNSVSRIIIEELPKLAASANSAVDHHHHHHHH

Some targets named below: SA2758; SA2773; SA2764; SA2771; SA2766; SA2767; SA2772; SA2760; SA2763.
What all share (assay): ELISA
Assay [1] concerns the target B3.
The target of assay [2] is B3. This is another data set of the same source.

B1: hCMAb45 humanized anti-CTHRC1 antibody (antibody, V domains shown)
VH: QVQLVESGAEVKKPGASVKVSCKASGYSFTDYIILWVRQAPGQGLEWMGAINPYYGSTVYGQKFQGRLTITADGSMSTAYMELSSLRSEDTAVYYCARSGYGYDESAMDYWGQGTLVTVSS
VL: DIVMTQTPLSLPVTPGEPASISCRSSKSLLNSDGFTYLDWYLQKPGQSPQLLIYLVSNRFSGVPDRFSGSGSGTDFTLKISRVEAEDVGVYYCFQSNYLPLTFGQGTKLEIK
For the molecule B1, the Kd came to 128 pM with CTHRC1-His [1] and 89 pM in the assay with CTHRC1-His [2].

B2: cCMAb45 anti-CTHRC1 chimeric antibody (antibody, V domains shown)
VH: EVQLQQSGPELVKPGASVKISCKASGYSFTDYIMLWVKQSHGKSLEWIGNINPYYGSTSYNLKFKGKATLTVDKSSSTAYMQLNSLTSEDSAVYYCARSGYGYDESAMDYWGQGTSVTVSS
VL: DVLMTQTPLSLPVNIGDQASISCKSTKSLLNSDGFTYLDWYLQKPGQSPQLLIYLVSNRFSGVPDRFSGSGSGTDFTLKISRVEAEDLGVYYCFQSNYLPLTFGSGTKLEIK
In the case of B2, the Kd in the assay with CTHRC1-His [1] worked out at 257 pM; with CTHRC1-His [2] it was 93 pM.

Regarding B3, the Kd with SA2758 stood at 82 pM; in the assay with SA2773, 300 pM; in the assay with SA2764, 175 pM; with SA2771 it was 221 pM; in the assay with SA2766 it was 202 pM; with SA2767, 480 pM. The Kd amounted to 406 pM with SA2772, 118 pM with SA2760 and 250 pM with SA2763.

B4: hCMAb96 humanized anti-CTHRC1 antibody (antibody, V domains shown)
VH: QVQLVQSGAEVKKPGASVKVSCKASGYTFTSYWMHWVRQAPGQGLEWIGYIYPSSGTTNYNQKFQGRVTITADESTSTAYMELSPLRSEDTAVYYCTTESYWGQGTTVTVSS
VL: DIQMTQSPSSLSASLGDTITITCHASQNINVWLAWYQQKPGKAPKLLIYKASNLHSGVPSRFSGSGSGTDFTLTISSLQPEDIATYYCQQGQSYPLTFGQGTKVEIK
Turning to B4, the Kd came out at 196 pM in the assay with CTHRC1-His [1] and 131 pM with CTHRC1-His [2].

B5: cCMAb96 anti-CTHRC1 chimeric antibody (antibody, V domains shown)
VH: QVQLQQPGSELVRPGASVKLSCKASGYTFTSYWMHWVKQRPGQGLEWIGNIYPSSGTTNYDEKFKNKATLTVDTSSTTAYMHLSSLTSEDSAVYYCTTESYWGQGTTLTVSS
VL: DIVMTQSPSSLSASLGDTITITCHASQNINVWLSWYQQKPGNIPKLLIYKASNLHTGVPSRFSGSGSGTGFTLTISSLQPEDIATYYCQQGQSYPLTFGGGTKLEIK
On to B5, for which the Kd with CTHRC1-His [1] was determined as 187 pM; in the assay with CTHRC1-His [2], 128 pM.
